Test results reported in the nanobody polyreactivity screen of Harvey et al. (2022).

Test: yeast display, Sf9 membrane polyspecificity reagent, FACS + sequencing; frameworks hold sequencing errors
Outline: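 Nanobodies came from a synthetic yeast display library in Saccharomyces cerevisiae BJ5465, induced with galactose for 36–48 hours and stained for 1 hour at 4 °C with 10% biotinylated, detergent-solubilized Sf9 membrane reagent. Cells were enriched on streptavidin microbeads and then FACS-sorted, with low and high (top ~1%) gates set on anti-HA fluorescence for expression and streptavidin fluorescence for reagent binding. Each polyreactivity label reflects the gate a clone came from. Genes were amplified by colony PCR, sequenced by MiSeq 2 × 250 and filtered by CDR length.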

| Sequence | polyreactivity (PSR sort gate) |
| --- | --- |
| QVQLVESGGGLVQAGGSLRLSCAASGSTFPYNAMGWYRQAPGKERELVAVITTVGSTYYADSVKGRFTISRDNAKNTVYLQMNSLKPEDTAVYYCAAANTQSPGYDYWGQGTQVTVSS | low polyreactivity |
| QVQLVESGGGLVQAGGSLRLSCAASGRTFRYNALGWYRQAPGTERELVAAISRGTITNYAASVKGRFTISRDNAKNPVYFQLTSLKPEDTAVYYCNAGWGVVIRRYPTYHYWGQGTQVTVSS | high polyreactivity |
| QVQVVESGGGLVQAGGSLRLSCAASGRTFDVYAMGWYRQAPGKERELVAAITERGSTYYADSVKRRFTISRDNAKNTDYLQMNSLKPVDTAVYDCAARTSGDGCIYYYWGQGTQVTVSS | high polyreactivity |
| QVQLVESGGGLVQAGGSLRLSCAASGSTFFYSMGWYRKAPRKERELVAAISWIDSITYYADSVKGRFTISRDNAKNTVYLQMNSLKPEDIAVYYCAAEGQNEGYDYWVQGTQVTVSS | high polyreactivity |
| QVQLVESGGGLVQAGGSLRLSCAASGSTFDYYVMGWYRQAPGKERELVASISSGGSTYYADSVKGRFTISRDNAKNTVYLQMNSLKPEDTAVYYCAARYYGRVGGYSIGYNYWGQGTQVTVSS | high polyreactivity |
| QVQLVESCGGLVQAGGSLRLISAASGRTFGHNTMGWYRQAPGKEREYVAAIRWTAGSTYYADSVKGRFTISRDNAKNTVYLQMNSLKPEDTAVYYCAAYYVERRSYRVDRGTTLGYWGQGTQVTVSS | high polyreactivity |
| QVQLVESGGGLVQAGGSLRLSCAASGFIFFQYAMGWYRQAPGKERELVAAISGSGVTTYYADSVKGRFTISRDNAKNTVYLQMKSLKPEDTPVYYCAARPSGRGYYLLGYWGQGTQVTVSS | low polyreactivity |
| QVQLVESGGGLVQAGGSLRLSCAASGITFSRNAMGWSRQARGKERELVAAISRGGSTNYADSVKGRFTISRDNAKNTVYLQMNSLKPEDTAVYYCNAPGYLSWRFYGVKRNYWGQGTQVTVSS | high polyreactivity |
| QVQLVESRGGLVQAGGSLRLSCAACGLIFTRNAMGWYSAAPGKERELVAAISRSGGTTYYADSVKGRFTISRDNAKNTVYLQMNSLKPEDTAVYYCAAGSWWVIGGSVSYWYNYWGQGTQVTVSS | high polyreactivity |
| QVQLVESGGGLVQAGGSLRLSCAASGRTYYPNAIGWYRQAPGKEMDLVADITYSGASTYYADSVKGRFTISRDNAKNTVYLQMNSLKPEDTAVYYCAVPGATSYFAYDSWGQGTQVTVSS | low polyreactivity |
| QVQLVESGGGLVQAGGSLRLSCAASGSTFLVYAMGWYRQAPGKERELVAAITQIDGSTYYADSVKGRFTISRDNAKNTVYLQMNSLKPEDTAVYYCAARYFWTYEYDYWGQGTQVTVSS | low polyreactivity |
| QVQLVESGGGLVQAGGSLRLSCAASGSIFQPYGMGWYRQAPGKERELVASIRGSAGSTHYADSVKGRFTISRDNAKYTVYLQMNSLKPEDTAVDYCAARAVASHFSPSLYGYWGHGTQVTVSS | high polyreactivity |
| QFQLVESGGGLVQAGGSLRLSCAASGLIFAYYAMGWYRQAPGKERELVAAISWTGGSTYYADSVKGRFTISRDNAKNTVYLQMNSLKPEDTAVYYCNTVGKPGFYSWGQGTQVTVSS | high polyreactivity |
| QVQLVESGGGLVQAGGSLRLSCGASGRIFAYYAMGWYRQAPGKERELVADISSGGNTYYADSVKGRFTISRDNAKNTVYLQMNSLKPEDTAVYYCAADIAWYTHDHRIFDYWGQGTQVTVSS | low polyreactivity |
| QVQLVESGGGLDQAGGSLRLSCAASGYTFPYYTMGWYRQAPGKESELVATITRRGDSTYYADSVKGRFTISRDNAKNTVYLQMNSLKPEDTAVYYCNTASYGRHHFRKSSKMDYWGQGTQVTVSS | high polyreactivity |
| QVQLVESGGGLVQAGGSLRLSCAASGFTFGTYAMGWYRQAPGKERELVARITSGGRTNYADSVKGRFTISRDNAKNTVYLQMNSLKPEDTAVFYCNAVNGYYWGSRFDYWGQGTQVTVSS | high polyreactivity |
| QVQLVESGGGLVQAGGSLRLSCAASGSIFDDNAMGWYRQAPGKERELVATINYGGGRTSYADSVKGRSTISRDNAKNTVYLQMNSLKPEDTAVYYCAADPRQKEDYWGQGTQVTVSS | low polyreactivity |
| QVQLVESGGGLVQAGGSLRLSCAASGRTFRHNTMGWYRQAPGKEREFVAVITSSGGSTYYADSVKGRFTISRDNAKNTVYLQMNSLKPEDTAVYYCNAKYHLSRSTYYYWGQGTQVTVSS | high polyreactivity |
| QVQLVESGGGLVQAGGSLRLSCAPSGISIIGYAMGWYRQAPGKVRELVASIDSGGITNYADSVKGRFTISRDNAKNTVYLQMNSLKPEDTAVYDCAARVAYFGGPYYSWGEGTQVTVSS | high polyreactivity |
| QVQLVESGGGLVQAGGSLRLSCAASGITFSYYAMGWYRQAPGKERELVAAITGGSTYYADSVKGRFTISRDNAKNTVYLQMNSLKPEDTAVYYCNADSLFEYLDYDYWGQGTQVTVSS | low polyreactivity |
| QVQLVDSGGGLVQAGGSLRLSCSASGFTFKYYAMGWYRQAPGKERELVASINWSGGRTSYADSVKGRFTISRDNAKNTVYLQMNSQKPEDTAVYYCARTPAGRGEYWGQGTQVTVSS | low polyreactivity |

| Sequence | polyreactivity (PSR sort gate) |
| --- | --- |
| QVQLVESGGGLVQAGGSLRLSCAASGIIFPKYVMGWYRKAPGKERELVAAISWSGTSTYYADSVKGRFTISRDNAKNTVYLQMNSLKPEDTAVYYCAARWSSTTGRFDYWGQGTQVTVSS | high polyreactivity |
| QVQLVESGGGLVQAGGSLRLSCAASGSIIGDNTMGWYRQAPGKERELVATIRKNGASTTYADSVKGRFTISRDNAKNTVYLQMNSLKPEDTAVYYCARDHHTKYNYWGQGTQVTVSS | low polyreactivity |
| QVQLVESGGGLVQAGGSLRLSCAASGIILSDNAMGWYRQAPGKEREIVAAITGSGGSTYYADSVKGRFTISRDNAKNTVYLQMNSLKPEDTAVYYCAADGPYGYYYGHYGYWGQGTQVTVSS | low polyreactivity |
| QVQLVESGGGLVQAGGSLRLSCAASGSIFLDYAMGWYRQAPGKERELVDGITISGGSTYYADSVKGRFTISRDNAKNTVYLQMNSLKPEYTAVYYCAKVAPRSSSSQEYYYWGQGTQVTVSS | low polyreactivity |
| QVQLVESGGGLVQAGGSLRLSCAASGSTFNRYAMGWYRPAPGKERELVASISWGGGRTYYADSVKGRFTISRDNAKNTVDFQLNSLKPEDTAVYFCATDRYDRHYEVDYWGQGTQVTVSS | low polyreactivity |
| QVQLVESGGGLVQAGGSLRLSCAASGSTFIWNAMGWYRQAPGKERELVATITGSGDRTTYADSVKGRFTISRDNAKNTVYLQMNSLKPEDTAVYYCAADAYRWWVRYDYWGQGTQVTVSS | low polyreactivity |
| QVQLVESGGGLVQAGGSLRLSCAASGSIFSRYAMGWYRQAPGKERELVAAISRRRGTTYYADSVKGRFTISRDNAKNTVYLHMNSLKTEDTAVYYCAAVFVTQSFIYDYYYWGQGTQVTVSS | high polyreactivity |
| QVQLVESGGGLVQAGGSLRLSCAASGSTFNRNAMGWYRQAPGKERELVAAISWRGDSTSYADSVKGRFTISRDNAKNTVYLQMNSLKPEDTAVSYCAADYYYGQGQPDEDNYWGQGTQVTVSS | low polyreactivity |
| QVQLVESRGGLVQAAGSLRLSCAASGGTFDINAMGWYRQAHGKEREFVAAISSYDDGTYYADSVKGRFTISRDNAKNTVYLQMNSLKPEDTAVYYCAAEGYYDYLYRHYYWGQGTLVTVSS | low polyreactivity |
| QVQLVESGGGLVQAGGRLRLSCAASGSIFRSNVMGWYIQAPGKEREMVASITSGGITYADSVNGRFTISRDNAQNTVYLQMNSLKPEDTAVYYCDTVRRYAMSPYKGRYDYWGQGTQVTVSS | low polyreactivity |
| QDQLVESGGGLVQAGGRLRLTCAASGNTFSGNAMGWYRQAPGKERELVAAISGSGASTYYADSVKGRFTISRDNAKNTVYLQMNSLKPEDTAVYYCDADKPGIFSRFDYWGQGTQVTVSS | low polyreactivity |
| QVQLVESGGGLVQAGGSLRLSCAASGRVRYAIGWYRQAPGKESELVASITRRAGNTYYADSVKGRFTISRDNAKNTVYLQMNSLKPEDTAVYYCAAADVGAYRGNYWGQGTLVTVSS | high polyreactivity |
| QVQLVESGGGLVQAGGSLRLSCAASGSIFGSYAMGWYRQAPGKERALVAAMSRSGITYYADSVKGRFTISRDNAKNTVYLQMNSLKPEDTAVYYCNADVSWWGYHYDYWGQGTQVTVLS | high polyreactivity |
| QVQLVESGGGLVQAGGSLRLSCAASGRIFVGYAMGWYRQAPGKERELVAAISRSGARTYYADSVKGRFTISRAIAKNTVYLQMNSLKPVDTAVYYCNTVKVLIYSWGQGTQVTVSS | high polyreactivity |
| QVQLVESGGGLVQAGGSLRLSCAASGFIFWWYAMGWYRQAPGKERELVATITASVGSTNYADSVKGRFTISRDNAKNTVYLQMNSLKPEDTAVYYCATDIIGAIRDWDHTRMDYWGQGTQVTVSS | low polyreactivity |
| QVQLVESGGGLVQAGGSLRLSCAASGRIFRNNAMGGDRQAPGKERELVASITSSGGSTYYADSVKGRFTISRDNAKNTVYLQMNSLKPEDTAVYYCAAYTRSGYGYKLYYYWGQGTQVNVSS | high polyreactivity |
| QVQLVESGGGLVQAGGSLRLSCAASGFTFVSYAMGWYRQAPGKERELVAAISKRGGSTSYADSVKGRFTISRDNAKNTVYLQMNSLKPEDTAGYYCAARYGSSYSWSNYWGQGTQVTVSS | high polyreactivity |
| QVQLVESGGGIVQAGGSLRLSCAASGSIFKHYAMGWYRQAPGKERELVATIDYLGGRTYYADSVKGRFTISRDNAKNTVYLQMNSLKPEDTAVYYCAASRYSGKIRGEDYWGQRTQVTVSS | low polyreactivity |
| QVQLVESGGGLVQAGGSLRLSCAASGSTFDKNTMGWYRQAPGKERELVAAISRSGGSTYYADSVKGRYTISRDNAKNTVYLQMNSLKPEDTAVYYCAAQSRYWTYDYWGQGTQVTVSS | high polyreactivity |
| QVQLVESGGGLVQAGGSLRLSCAASGSTFNLYAMGWYRQAPGKERELVAAISDGDSSTYYADSVKGRFTISRDNAKNTVYLQMNSLKPEDTAVYYCAADFSVYTEEDDSWGQGTQVTVSS | low polyreactivity |
